Experimental data taken from IntAct's records for PubMed 11932251.

B1: Regulator of chromosome condensation (Homo sapiens), P18754 (parent)
chain: MSPKRIAKRRSPPADAIPKSKKVKVSHRSHSTEPGLVLTLGQGDVGQLGLGENVMERKKPALVSIPEDVVQAEAGGMHTVCLSKSGQVYSFGCNDEGALGRDTSVEGSEMVPGKVELQEKVVQVSAGDSHTAALTDDGRVFLWGSFRDNNGVIGLLEPMKKSMVPVQVQLDVPVVKVASGNDHLVMLTADGDLYTLGCGEQGQLGRVPELFANRGGRQGLERLLVPKCVMLKSRGSRGHVRFQDAFCGAYFTFAISHEGHVYGFGLSNYHQLGTPGTESCFIPQNLTSFKNSTKSWVGFSGGQHHTVCMDSEGKAYSLGRAEYGRLGLGEGAEEKSIPTLISRLPAVSSVACGASVGYAVTKDGRVFAWGMGTNYQLGTGQDEDAWSPVEMMGKQLENRVVLSVSSGGQHTVLLVKDKEQS
partner: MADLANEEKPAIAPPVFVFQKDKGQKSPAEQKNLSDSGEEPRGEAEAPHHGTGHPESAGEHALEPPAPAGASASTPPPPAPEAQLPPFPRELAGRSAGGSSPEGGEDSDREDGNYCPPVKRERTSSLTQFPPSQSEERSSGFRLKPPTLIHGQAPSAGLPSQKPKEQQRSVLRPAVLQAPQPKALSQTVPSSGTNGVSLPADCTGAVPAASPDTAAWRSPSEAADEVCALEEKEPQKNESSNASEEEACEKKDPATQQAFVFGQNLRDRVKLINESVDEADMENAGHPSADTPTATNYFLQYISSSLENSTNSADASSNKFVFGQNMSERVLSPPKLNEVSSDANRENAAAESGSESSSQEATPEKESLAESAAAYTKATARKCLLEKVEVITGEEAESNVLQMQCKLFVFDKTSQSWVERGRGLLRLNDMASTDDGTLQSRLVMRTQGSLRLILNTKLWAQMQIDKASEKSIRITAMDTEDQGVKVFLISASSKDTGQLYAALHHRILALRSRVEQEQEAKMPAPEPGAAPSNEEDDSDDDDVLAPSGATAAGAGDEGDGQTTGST

Variants of: B1
Conditions: with ranb3_human RANBP3, Q9H6Z4

Variant | effect of a mutation on the interaction
D182A | disrupting interaction
